Publication PMC12182672

Target: host plasminogen (Plg), porcine (pig)
Test: ELISA; microtiter plates coated with 0.8 ug/well Plg in 50 mM carbonate-bicarbonate buffer pH 9.8; His-tagged proteins added at 1 ug/mL; detected with His-tag monoclonal antibody and HRP anti-mouse; OD450

Row | Substance | fold binding activity (OD450) over the negative control rNOD1 [fold]
1 | truncated rMhp390(27-247) (domain or fragment) | 2.56
2 | truncated rMhp390(425-604) (domain or fragment) | 2.68
